{
  "source": "patent US10052364B2",
  "about": "“Osteocalcin as a treatment for cognitive disorders” (THE TRUSTEES OF COLUMBIA UNIVERSITY IN THE CITY OF NEW YORK, priority 2013, dated 2018)",
  "test": "Ex vivo dual perfusion of the mouse placenta (maternal-fetal transport)",
  "type": "in vitro ADME",
  "details": "300 ng/ml through the uterine artery",
  "procedure": "FIG. 6. Maternal osteocalcin favors fetal neurogenesis. (A) Expression of osteocalcin (qPCR) in bone, brain, and placenta of WT and Ocn^−/− newborns (postnatal day [P] 0) and embryos (E13.5-E18.5). (B) Osteocalcin circulating levels in WT or Ocn^−/− newborns (P0) and embryos (E13.5-E18.5). (C) Ex vivo dual-perfusion system that monitors the transport of osteocalcin across the placenta. Uncarboxylated mouse osteocalcin (300 ng/ml) was injected through the uterine artery in placentas obtained from WT mice at E14.5, E15.5, and E18.5 of pregnancy. Osteocalcin in fetal eluates is represented as % of maternal input. (D) Circulating levels of osteocalcin in WT embryos originating from WT or Ocn^+/− mothers, of Ocn^+/− embryos originating from Ocn^+/− Ocn^−/− mothers, and of Ocn^−/− embryos originating from Ocn^+/− or Ocn^−/− mothers. Measurements were performed at E16.5 and E18.5. […]\nMaternal-fetal transport of osteocalcin was monitored using ex vivo dual perfusion of the mouse placenta (Goeden & Bonnin, 2013, Nature Protocols 8:66-74). […] Osteocalcin transport through the placenta was analyzed by measuring the concentration of osteocalcin present in fetal eluates obtained through the umbilical vein, each time point (1-9) corresponding to a 10 minute collection period (at 5 μl/min). […]",
  "data": [
    {"molecule": "uncarboxylated osteocalcin: Recombinant osteocalcin bacterially produced, cleaved from the GST subunit; completely undercarboxylated at all three sites (protein, listed as Homo sapiens, uncarboxylated, Recombinant osteocalcin bacterially produced, cleaved from the GST subunit; completely undercarboxylated at all three sites) MRALTLLALLALAALCIAGQAGAKPSGAESSKGAAFVSKQEGSEVVKRPRRYLYQWLGAPVPYPDPLEPRREVCELNPDCDELADHIGFQEAYRRFYGPV", "values": [
      {"measurement": "transport across the placenta, onset", "setting": "WT placentas", "value": "begins to cross the placenta at day 14.5 of gestation"},
      {"measurement": "transplacental transfer to the fetal circulation at day 15.5 or 18.5 of gestation", "setting": "compared with day 14.5", "value": "larger transplacental transfer"}
    ]}
  ]
}
